Results reported in US20240216557A1, “RADIOLIGAND BINDING TO ANTI-DLL3 ANTIBODIES FOR PRETARGETED PET IMAGING AND THERAPEUTIC USES THEREOF” (Memorial Sloan-Kettering Cancer Center, priority 2021, published 2024).

T1: Histidine-tagged DLL3 antigen (DLL3-His) (Homo sapiens, UniProt Q9NYJ7)
T1 construct: corresponding to amino acids Ala27-Ala479 with a C-terminal 6×His tag; made in house; host or cells: HEK293T cells
T1 sequence (Q9NYJ7 27-479): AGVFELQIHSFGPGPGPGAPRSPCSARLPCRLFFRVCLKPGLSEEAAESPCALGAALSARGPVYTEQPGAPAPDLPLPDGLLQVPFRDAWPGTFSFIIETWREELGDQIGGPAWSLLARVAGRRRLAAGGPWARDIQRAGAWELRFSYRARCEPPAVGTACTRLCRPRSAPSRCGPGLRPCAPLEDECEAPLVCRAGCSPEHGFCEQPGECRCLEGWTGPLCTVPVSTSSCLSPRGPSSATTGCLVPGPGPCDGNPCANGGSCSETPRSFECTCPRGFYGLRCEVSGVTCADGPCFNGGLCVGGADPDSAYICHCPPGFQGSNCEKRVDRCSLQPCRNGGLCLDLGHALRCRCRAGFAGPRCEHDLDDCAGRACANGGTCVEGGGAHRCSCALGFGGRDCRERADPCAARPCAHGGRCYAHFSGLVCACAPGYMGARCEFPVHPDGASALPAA

T2: hDLL1 (Homo sapiens, UniProt O00548)
T2 sequence (O00548 18-723): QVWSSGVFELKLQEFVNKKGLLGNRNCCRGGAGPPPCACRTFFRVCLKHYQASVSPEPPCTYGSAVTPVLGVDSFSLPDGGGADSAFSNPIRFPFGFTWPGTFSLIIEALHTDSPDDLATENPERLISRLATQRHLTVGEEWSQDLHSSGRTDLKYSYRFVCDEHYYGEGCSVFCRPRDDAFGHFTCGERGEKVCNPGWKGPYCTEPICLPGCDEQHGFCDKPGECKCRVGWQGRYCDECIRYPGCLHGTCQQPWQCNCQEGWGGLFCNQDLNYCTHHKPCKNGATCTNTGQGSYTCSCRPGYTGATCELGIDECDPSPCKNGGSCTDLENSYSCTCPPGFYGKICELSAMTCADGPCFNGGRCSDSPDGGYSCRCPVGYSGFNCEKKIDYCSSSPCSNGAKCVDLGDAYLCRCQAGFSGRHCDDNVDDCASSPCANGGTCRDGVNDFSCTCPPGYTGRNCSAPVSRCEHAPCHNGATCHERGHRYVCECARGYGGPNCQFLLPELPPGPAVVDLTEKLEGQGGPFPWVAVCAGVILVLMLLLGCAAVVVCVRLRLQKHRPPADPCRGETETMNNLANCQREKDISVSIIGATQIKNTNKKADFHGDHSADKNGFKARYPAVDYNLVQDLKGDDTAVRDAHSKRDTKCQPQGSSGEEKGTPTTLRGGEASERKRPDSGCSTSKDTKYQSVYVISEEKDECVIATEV


Test system: SCLC cells
Assay: not given
Conditions: cited from earlier work

Molecule	internalization by SCLC cells upon binding to DLL3
SC16: DLL3-targeting SC16 antibody component of Rova-T (antibody, chains of the INN, looked up, V domains shown) VH: QVQLVQSGAEVKKPGASVKVSCKASGYTFTNYGMNWVRQAPGQGLEWMGWINTYTGEPTYADDFKGRVTMTTDTSTSTAYMELRSLRSDDTAVYYCARIGDSSPSDYWGQGTLVTVSS VL: EIVMTQSPATLSVSPGERATLSCKASQSVSNDVVWYQQKPGQAPRLLIYYASNRYTGIPARFSGSGSGTEFTLTISSLQSEDFAVYYCQQDYTSPWTFGQGTKLEIK	rapidly internalized

Target: T1, Histidine-tagged DLL3 antigen (DLL3-His)
Assay: Pairwise epitope binning on Carterra array SPR
Conditions: pairwise competition for binding to DLL3-His, antibodies immobilized on HC200M chip
Experimental: The panel of purified anti-DLL3 monoclonal antibodies and the reference monoclonal antibody were subjected to pairwise epitope binning on a Carterra® array surface plasmon resonance (SPR) assay platform (Carterra*Inc., Salt Lake City UT) where each monoclonal antibody was tested for the capture of Histidine-tagged DLL3 antigen (DLL3-His), and also for competing with every other antibody in the panel for the binding to DLL3-His. The antibodies were immobilized on a HC200M chip (ligand) through standard amine coupling techniques by the print array method. Then in each cycle antigen was injected across the entire array followed by a single antibody (analyte). At the end of each cycle the surface was regenerated to remove antigen and analyte before a new cycle started.

Molecule	Epitope Bin
B16-v2: anti-DLL3 antibody, VH SEQ ID NO: 108, VL SEQ ID NO: 113 (antibody, V domains shown) VH: QVQLVQSGAEVKKPGASVKVSCKASGYTFTSYYMHWVRQAPGQGLEWMGIIDPSGGSTSYAQKFQGRVTMTRDTSTNTVYMDLSSLRSEDTAVYYCARQGRYVGSYLDYWGQGTLVTVSS VL: DIQMTQSPSSLSASVGDRVTITCRASQGISNYLAWFQQKPGKAPKSVIYAASSLQSGVPSKFSGSGSGTDFTLTISSMQPEDFATYYCQQYNSYPYTFGQGTKLEIK	4
O24: anti-DLL3 antibody, VH SEQ ID NO: 66, VL SEQ ID NO: 67 (antibody, V domains shown) VH: QVQLVQSGAEVKKPGASVKVSCKASGYTFTSYYLHWVRQAPGHGLEWMAIINPSGGSTSYAQKFLGRVTMTRDTSTNTVYMELSSLRSEDTAVYYCARERQQLDYYYFAMDVWGQGTTVTVSS VL: DIQMTQSPSSLSASVGDRVTITCRASQGISNYLAWFQQKPGKAPKSLIYAASSLQSGVPSKFSGSGSGTDFTLTISSLQPEDFATYYCQQYNSYPPTFGQGTKVEIK	4
E9: anti-DLL3 antibody, VH SEQ ID NO: 42, VL SEQ ID NO: 43 (antibody, V domains shown) VH: QVQLVQSGAEVKKPGASVKVSCKASGYTFTSYYMHWVRQAPGQGLEWMGVINSSGGSTSYAQKFQGRVTMTRDTSTSTVYMDLSSLRSEDTAVYYCARGYCTNGVYYDEDFDYWGQGTLVTVSS VL: DIQMTQSPSSLSASVGDRVTITCRASQGISHYLAWFQQKPGKAPTSLIYAASSLQSGVPSKFSGSGSGTDFTLTISSLQPEDFATYYCQQYNSYPLTFGGGTKVEIK	4
J8: anti-DLL3 antibody, VH SEQ ID NO: 7, VL SEQ ID NO: 8 (antibody, V domains shown) VH: QVHLVQSGAEVKKPGASVKVSCKASGYTFTIYYIHWVRQAPGQGLEWMGIINPSGGSTSYAQKFQGRVTMTRDTSTSTVYMELSSLRSEDTAVYYCSGNDYVDYVTTDYYGMDVWGQGTTVTVSS VL: DIQMTQSPSSLSASVGDRVTITCRASQGISNYLAWFQQKPGKAPKSLIYAASSLQSGVPSKFSGSGSGTDFTLTISSLQPEDFATYYCQQYNSSPYTFGQGTKLEIK	4
G16: anti-DLL3 antibody, VH SEQ ID NO: 157, VL SEQ ID NO: 158 (antibody, V domains shown) VH: QVQLVQSGAEVKKPGASVQVSCKASGYTFTSYYMHWVRQAPGQGLEWMGIINPSGGSTSYAQKFQGRVTMTRDTSTSTVYMELSSLRSEDTAVYYCARQGGAQWLVLAFDIWGQGTMVTVSS VL: EIVLTQSPGTLSLSPGERATLSCRASQSVSSYLAWYQQKPGQAPRLLIYGASSRATGIPDRFSGGGSGTDFTLTISRLEPEDFAVYYCQQYGSSPYTFGQGTKLEIK	4
F9: anti-DLL3 antibody, VH SEQ ID NO: 126, VL SEQ ID NO: 127 (antibody, V domains shown) VH: QVQLVQSGAEVKKPGASVQVSCKASGYTFTSYYMHWVRQAPGQGLEWMGIINPSGGSTSYAQKFQGRVTMTRDTSTSTVYMELSSLRSEDTAVYYCARQGGAQWLVLAFDIWGQGTMVTVSS VL: EIVLTQSPGTLSLSPGERATLSCRASQSVSSYLAWYQQKPGQPPRLLIYGASSRATGIPDRFSGGGSGTDFTLTISRLEPEDFAVYYCQQYDSSPYTFGQGTKLEIK	4
L22: anti-DLL3 antibody, VH SEQ ID NO: 17, VL SEQ ID NO: 18 (antibody, V domains shown) VH: EVQLLESGGGLVQPGGSLRLSCAASGFTFSSYAMGWVRQTPGKGLEWVSTISGRGGDTYYADSVKGRFTISRDNSKNTLYLQMNSLRAEDTAIYYCAKERGLGFDYWGQGTLVTVSS VL: DIVMTQTPLSLPVTPGEPASISCRSSQSLLDSDDGNTYLDWYLQKPGQSPQLLIYTLSYRASGVPDRFSGSGSGTDFTLKISRVEAEDVGVYYCMQHLEFPLTFGGGTKVEIK	8
B22: anti-DLL3 antibody, VH SEQ ID NO: 141, VL SEQ ID NO: 142 (antibody, V domains shown) VH: EVQLVESGGGLVQPGGSLRLSCAASGFTFNNFWMSWVRQAPGKGLEWVANIKQDGSEKYYVDSVKGRFTISRDNAKNSLYLQMNSLRAEDTAVYYCARESYFDLWGRGTLVTVSS VL: QAVVTQESALTTSPGETVTLTCRSSTGAVTTSNYANWVQEKPDHLFTGLIGGTNNRAPGVPARFSGSLIGDKAALTITGAQTEDEAIYFCALWYSNRWVFGGGTKLTVL	2
A18: anti-DLL3 antibody, VH SEQ ID NO: 34, VL SEQ ID NO: 35 (antibody, V domains shown) VH: QVTLRESGPALVKSTQTLTLTCTFSGFSLSTSGMCVSWIRQTPGKALEWLALIDWDDNKYYSTSLKTRLIISKDTSKNQVVLTMTNMEPVDTATYYCARIRGYSGSYDAFDIWGQGTMVTVSS VL: DIVMTQSPLSLPVTPGEPASISCRSSQSLLHSNGYNYLDWYLQKPGQSPHILLYLGSNRAPGVPDRFSGSGSGTDFTLKISRVEAEDVGVYYCMQALQTPFTFGPGTKVDIK	6
E23: anti-DLL3 antibody, VH SEQ ID NO: 119, VL SEQ ID NO: 120 (antibody, V domains shown) VH: QVQLVQSGAEVRKPGASVKVSCKASGYTFTGYYMHWVRQAPGQGLEWMGWINSYSGGANYAQKFQDRVTMTRDTSVSTASMELSRLRSDDTAVYYCARDGSGWYGSYFDFWGQGTLVTVSS VL: DIVMTQTPLSSPVTLGQPASISCRSSQSLVHSDGNTYLSWLQQRPGQPPRLLIYKISNRFSGVPDRFSGSGAGTDFTLKISRVEAEDVGFYYCIQTTQFPLTFGGGTKVEIK	7

Target: T2, hDLL1
Assay: ELISA specificity, hDLL1
Format: binding
Conditions: not given
Experimental: Next, affinity, binding domain, and specificity of antibodies including scFv designated as J8, B2, and L22 were analyzed. Affinity, binding domain and specificity of novel human anti-DLL3 antibodies are depicted in Table 30 below.

Molecule	ELISA hDLL1
J8: anti-DLL3 antibody, VH SEQ ID NO: 7, VL SEQ ID NO: 8 (antibody, V domains shown) VH: QVHLVQSGAEVKKPGASVKVSCKASGYTFTIYYIHWVRQAPGQGLEWMGIINPSGGSTSYAQKFQGRVTMTRDTSTSTVYMELSSLRSEDTAVYYCSGNDYVDYVTTDYYGMDVWGQGTTVTVSS VL: DIQMTQSPSSLSASVGDRVTITCRASQGISNYLAWFQQKPGKAPKSLIYAASSLQSGVPSKFSGSGSGTDFTLTISSLQPEDFATYYCQQYNSSPYTFGQGTKLEIK	0.095
L22: anti-DLL3 antibody, VH SEQ ID NO: 17, VL SEQ ID NO: 18 (antibody, V domains shown) VH: EVQLLESGGGLVQPGGSLRLSCAASGFTFSSYAMGWVRQTPGKGLEWVSTISGRGGDTYYADSVKGRFTISRDNSKNTLYLQMNSLRAEDTAIYYCAKERGLGFDYWGQGTLVTVSS VL: DIVMTQTPLSLPVTPGEPASISCRSSQSLLDSDDGNTYLDWYLQKPGQSPQLLIYTLSYRASGVPDRFSGSGSGTDFTLKISRVEAEDVGVYYCMQHLEFPLTFGGGTKVEIK	0.105

Test system: SCLC xenografts
Assay: not given
Conditions: mouse, in vivo, sc; cited from earlier work

Molecule	time post-injection at which optimal imaging was achieved
[^89Zr]Zr-DFO-SC16 (conjugate, chains of the INN, looked up, DFO chelator, 89Zr label) VH: QVQLVQSGAEVKKPGASVKVSCKASGYTFTNYGMNWVRQAPGQGLEWMGWINTYTGEPTYADDFKGRVTMTTDTSTSTAYMELRSLRSDDTAVYYCARIGDSSPSDYWGQGTLVTVSS VL: EIVMTQSPATLSVSPGERATLSCKASQSVSNDVVWYQQKPGQAPRLLIYYASNRYTGIPARFSGSGSGTEFTLTISSLQSEDFAVYYCQQDYTSPWTFGQGTKLEIK	≥ 120
